In publication PMC3784611 (Biochemistry, 2013):

Key:
[1] = target: unmyristoylated recoverin (bovine) (UniProt P21457); experiment: 15N NMR relaxation
[2] = target: unmyristoylated recoverin (bovine) (UniProt P21457); experiment: NMR pulsed-field gradient diffusion
CW-EPR line shape = target: the molecule itself; experiment: CW-EPR line shape

| stoichiometry N [1] | stoichiometry N [2] | Molecule | stoichiometry N (CW-EPR line shape) |
| --- | --- | --- | --- |
| 2 | 2 | unmyristoylated recoverin (from UniProt P21457 1-202) (natural protein) |  |
|  |  | myristoylated recoverin spin-labeled only at Cys39 (natural protein, bovine, N-terminal myristoyl group; nitroxide spin label at the native cysteine C39) GNSKSGALSKEILEELQLNTKFTEEELSSWYQSFLKECPSGRITRQEFQTIYSKFFPEADPKAYAQHVFRSFDANSDGTLDFKEYVIALHMTSAGKTNQKLEWAFSLYDVDGNGTISKNEVLEIVTAIFKMISPEDTKHLPEDENTPEKRAEKIWGFFGKKDDDKLTEKEFIEGTLANKEILRLIQFEPQKVKEKLKEKKL | 2 |
